According to patent publication US20210364527A1 (QUANTUM SI, published 2021):
Where two headings read alike, the source gives them in different places.

T1: IA peptide IAKLDEESILKQK (XAKLDEESILKQK, X = I)
T1 construct: Immobilized on the biolayer interferometry sensor
T1 peptide: IAKLDEESILKQK

T2: VA peptide VAKLDEESILKQK (XAKLDEESILKQK, X = V)
T2 construct: Immobilized on the biolayer interferometry sensor
T2 peptide: VAKLDEESILKQK

T3: F peptide FAKLDEESILKQK (XAKLDEESILKQK, X = F)
T3 construct: Immobilized on the biolayer interferometry sensor
T3 peptide: FAKLDEESILKQK

T4: W peptide WAKLDEESILKQK (XAKLDEESILKQK, X = W)
T4 construct: Immobilized on the biolayer interferometry sensor
T4 peptide: WAKLDEESILKQK

T5: LA peptide LAKLDEESILKQK (XAKLDEESILKQK, X = L)
T5 construct: Immobilized on the biolayer interferometry sensor
T5 peptide: LAKLDEESILKQK

B1: PS419 (other)
chain: MEKEQSLCKEKTHVELSEPKHYKVVFHNDDFTTMDFVVKVLQLVFFKSQLQAEDLTMKIHLEGSATAGIYSYDIAQSKAQKTTQMAREEGFPLRLTVEPEDN
B2: PS408 (other)
chain: MTDPPSKGREDVDLATRTKPKTQRPPLYKVLLLNDDFTPMEFVVHILERLFGMTHAQAIEIMLTVHRKGVAVVGVFSHEIAETKVAQVMELARRQQHPLQCTMEKE
B3: PS395 (other)
chain: MTVSQSKTQGAPAAQSATELEYEGLWRVVVLNDPVNLMSYVVLVFKKVFGFDETTARKHMLEVHEQGRSVVWSGMREKAEAYAFTLQQWHLTTVLEQDEVR
B4: PS394 (other)
chain: MAERRDTGDDEGTGLGIATKTRSKTKKPTPYRVLMLNDDYTPMEFVVLCLQRFFRMNMEEATRVMLHVHQKGVGVCGVFSYEVAETKVGQVIDFARANQHPLQCTLEKA
B5: PS414 (other)
chain: MQAAGNEPPDPQNPGDVGNGGDGGNQDGSNTGVVVKTRTRTRKPAMYKVLMLNDDYTPMEFVVHVLERFFQKNREEATRIMLHVHRRGVGVCGVYTYEVAETKVTQVMDLARQNQHPLQCTIEKE
B6: PS409 (other)
chain: MPARLTDIEGEPNTDPVEDVLLADPELKKPQMYAVVMYNDDYTPMEFVVDVLQNHFKHTLDSAISIMLAIHQQGKGIAGIYPKDIAETKAQTVNRKARQAGYPLLSQIEPQG
B7: PS393 (other)
chain: MSDEDGEDGDENAVGIATRTRTRTKKPTPYRVLLLNDDYTPMEFVVLVLQRFFRMSIEDATRVMLQVHQKGVGVCGVFTYEVAETKVSQVIDFARQNQHPLQCTLEKA
B8: PS412 (other)
chain: MATKREGSTLLEPTAAKVKPPPLYKVLLLNDDYTPMEFVVLVLKKFFGIDQERATQIMLKVHTEGVGVCGVYPRDIAHTKVEQVVDFARQHQHPLQCTMEES
B9: PS418 (other)
chain: MSDHNIDHDTSVAVHLDVVVREPPMYRVVLLNDDFTPMEFVVELLMHFFRKTAEQATQIMLNIHHEGVGVCGTYPREIAETKVAQVHQHARTNGHPLKCRMEPS
B10: PS407 (other)
chain: MPSNKRQMCLSDIKNSFNESGIVDWHISPRLANEPSEEGDSDLAVQTVPPELKRPPLYAVVLLNDDYTPMEFVIEILQQYFAMNLDQATQVMLTVHYEGKGVAGVYPRDIAETKANQVNNYARSQGHPLLCQIEPKD
B11: PS434 (other)
chain: MSRLPWKQEAKFAATVIIDFPDATLEAPTIEKKEATEQQIEMPWNVVVHNDPVNLMSYVTMVFQRVFGYPRERAEKHMLEVHHSGRSILWSGLRERAELYVQQLHGYLLLATIEKTV
B12: PS433 (other)
chain: MMSSLKECSIQALPSLDEKTKTEEDLSVPWKVIVLNDPVNLMSYVVMVFRKVFGYNENKATKHMMEVHQLGKSVLWTGQREEAECYAYQLQRWRLQTILEKDD
B13: PS422 (other)
chain: MTQIKPQTIPDTDVISQTQSDWQMPDLYAVIMHNDDYTTMDFVVFLLNAVFDKPIEQAYQLMMQIHQTGRAVVAILPYEIAEMKVDEATSLAEQEQFPLFISIEQA
B14: PS392 (other)
chain: MSVEIIEKRSTVRKLAPRYRVLLHNDDFNPMEYVVQTLMATVPSLTQPQAVNVMMEAHTNGMGLVIVCALEHAEFYAETLNNHGLGSSIEPDD
B15: PS425 (other)
chain: MTHYFSNILRDQESPKINPKELEQIDVLEEKEHQIILYNDDVNTFEHVIDCLVKICEHNYLQAEQCAYIVHHSGKCSVKTGSLDELVPKCNALLEEGLSAEVV
B16: PS570 (other)
chain: MTGAGASQPSILEETEVRPRLSDGPWKVVLWDDDFHTYEYVIEMLMDVCQMPWEKAFQHAVEVDTRKKTIVFSGELEHAEFVHERILNYGPDPRMGSSKGSMTATLEQ
B17: PS550 (other)
chain: MPTFTEPEVVNDTRILPPYHVILLNDDDHTYEYVIHMLQTLFGHPQERGFQLAVEVDKKGKAIVFTTSKEHAEFKRDQIHAFGADPLSSKNCKGSMSAVIEPSF
B18: PS546 (other)
chain: MSDTITLPGRPEVERDERTRRQPPYNVILHNDDDHTFEYVIVMLNQLFGYPPEKGYEMAKEVHLNGRVIVLTTSKEHAELKRDQIHAFGPDPFSSKDCKGSMSASIEPAY
B19: PS549 (other)
chain: MSESITTLPKKSRRLKEEEEQKTKRQPPYNVILLNDDDHTFEYVIFMLQKLFGHPPERGMQMAKEVHTTGRVIVMTTALELAELKRDQIHAFGPDPLIDRCKGSMSATIEPAPI
B20: PS575 (other)
chain: MASTQTPDLNEITEESTKSTGGPWRVVLWDDNEHTYEYVIEMLMEICTMTVEKAFLHAVQVDQEKRTVVFSGEFEHAEHVQERILTYGADPRMSNSKGSMSATLEK
B21: PS556 (other)
chain: MGDSNTSVAEPGEVTVVTTKPAPKKAKPKRQPKYHVVLWNDDDHTYEYVILMMHELFGHPVEKGFQIAKTVDADGRAICLTTTKEHAELKRDQIHAYGKDELIARCRGSMSSTIEPEC
B22: PS548 (other)
chain: MSDTITLPEEKTDVRTKRQPPYHVILLNDDDHTYQYVIYMLQTLFGHPPETGFKMAQEVDKTGRVIVDTTSLERAELKRDQIHAFGPDPYIERCKGSMSAMIEPSE
B23: PS560 (other)
chain: MTETITTPAERTQTQAEPRSDRAWLWNVVLLDDDEHTYEYVIRMLHTLFGMPVERAFRLAEEVDARGRAVVLTTHKEHAELKRDQVHAFGKDALIASCAGSMSAVLEPAECGSDDED
B24: PS578 (other)
chain: MSGTVVESKPRNSTQLAPRWKVIVHDDPVTTFDFVLGVLRRVFAKPPGEARRITREAHDTGSALVDVLALEQAEFRRDQAHSLARAEGFPLTLTLEPAD
B25: PS565 (other)
chain: MSEFDHEHSGDTSVADPIVTTKTAPKPQKHAENETETRRQPPYNVIILNDEEHTFDYVIELLCKVFRHSLATAQELTWRIHLTGRAVVLTTHKELAELKRDQVLAYGPDPRMSVSKGPLDCFIEPAPGG
B26: PS566 (other)
chain: MSSPSSLDDVQVSTSRAKPANETRTRKQPPYAVIVENDDHHTFLYVIEALMKVCGHAPEKGFVLAQQIHTQGKAMVWSGTLELAELKRDQLRGFGPDNYAPRPVTFPLGVTIEPLP

Legend:
Assay in all cases: BLI heatmap
[1] = target: T1, IA peptide IAKLDEESILKQK …
[2] = target: T2, VA peptide VAKLDEESILKQK …
[3] = target: T3, F peptide FAKLDEESILKQK (XAKLDEESILKQK, …)
[4] = target: T4, W peptide WAKLDEESILKQK (XAKLDEESILKQK, …)
[5] = target: T5, LA peptide LAKLDEESILKQK …
[6] = target: T5, LA peptide LAKLDEESILKQK …
[7] = target: T1, IA peptide IAKLDEESILKQK …
[8] = target: T3, F peptide FAKLDEESILKQK (XAKLDEESILKQK, …)

Binder	binding result [1]	binding result [2]	binding result [3]	binding result [4]	binding result [5]	binding result [6]	binding result [7]	binding result [8]
B1	no binding	no binding	binds	–	–	–	–	–
B2	no binding	no binding	binds	–	–	–	–	–
B3	no binding	no binding	binds	–	–	–	–	–
B4	no binding	no binding	binds	–	–	–	–	–
B5	no binding	no binding	binds	binds	–	–	–	–
B6	no binding	no binding	binds	–	–	–	–	–
B7	no binding	no binding	binds	–	–	–	–	–
B8	no binding	no binding	binds	–	–	–	–	–
B9	no binding	no binding	binds	–	–	–	–	–
B10	no binding	no binding	binds	–	–	–	–	–
B11	no binding	no binding	binds	–	–	–	–	–
B12	no binding	no binding	binds	–	–	–	–	–
B13	no binding	no binding	binds	–	–	–	–	–
B14	no binding	no binding	binds	–	no binding	–	–	–
B15	no binding	no binding	binds	–	–	–	–	–
B16	–	–	–	–	–	binds	binds	no binding
B17	–	–	–	–	–	binds	–	–
B18	–	–	–	–	–	binds	binds	no binding
B19	–	–	–	–	–	binds	binds	no binding
B20	–	–	–	–	–	binds	binds	no binding
B21	–	–	–	–	–	binds	binds	no binding
B22	–	–	–	–	–	binds	binds	no binding
B23	–	–	–	–	–	binds	binds	no binding
B24	–	–	–	–	–	binds	–	binds
B25	–	–	–	–	–	binds	binds	binds
B26	–	–	–	–	–	binds	binds	binds
